Source: the supplement of paper PMC7125110
± gives the standard error. This sample holds only a part of the variants without activity.

B1: glmS ribozyme (parent)
chain: AUAAAAGCGCCAGAACUACAGAAAUGUAGUUGACGAGGAGGAGGUUUAUCGAAUUUUCGGCGGAUGCCUCCAAA

Assays:
Conditions in all cases: with glucosamine-6-phosphate
[1] = variants of: B1; test: self-cleavage kobs at 160 uM GlcN6P; higher = faster cleavage; RNA array
In short: (§1)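 Glucosamine-6-phosphate in HEPES/KCl/Mg(OAc)2 buffer, at 40 μM to 10 mM, was flowed over barcoded ribozyme variants transcribed in situ by E. coli RNA polymerase on sequenced MiSeq chips. Tracking was through a hybridised Cy3 probe at 37 °C. kobs, kcat and KM came from exponential decay fits and weighted Michaelis–Menten fits of normalised per-tile medians.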

[2] = variants of: B1; test: self-cleavage kobs at 640 uM GlcN6P; higher = faster cleavage; RNA array
In short: as §1

[3] = variants of: B1; test: self-cleavage kobs at 2500 uM GlcN6P; higher = faster cleavage; RNA array
In short: as §1

[4] = variants of: B1; test: self-cleavage kobs at 10000 uM GlcN6P; higher = faster cleavage; RNA array
In short: as §1

Row | Variant | self-cleavage kobs at 160 uM GlcN6P [1] | self-cleavage kobs at 640 uM GlcN6P [2] | self-cleavage kobs at 2500 uM GlcN6P [3] | self-cleavage kobs at 10000 uM GlcN6P [4]
1 | C11G C67A C71G | 4.73e-05 ± 1.9e-05 s⁻¹ | 0.000132 ± 3.5e-05 s⁻¹ | 0.000135 ± 4.2e-05 s⁻¹ | –
2 | A33G U45G U69A | < 1e-05 s⁻¹ | < 1e-05 s⁻¹ | – | –
3 | A14C U55G C67U | 0.00016 ± 4.2e-05 s⁻¹ | 0.000309 ± 9.8e-05 s⁻¹ | 0.000399 ± 0.00015 s⁻¹ | –
4 | G38C G51U U57C | < 1e-05 s⁻¹ | – | < 1e-05 s⁻¹ | –
5 | G38U A52U | < 1e-05 s⁻¹ | < 1e-05 s⁻¹ | – | < 1e-05 s⁻¹
6 | U47G C50U U56C A64U | < 1e-05 s⁻¹ | < 1e-05 s⁻¹ | < 1e-05 s⁻¹ | < 1e-05 s⁻¹
7 | C34U G37U | < 1e-05 s⁻¹ | < 1e-05 s⁻¹ | < 1e-05 s⁻¹ | < 1e-05 s⁻¹
8 | A6U G37C C71U | < 1e-05 s⁻¹ | – | – | –
9 | C8A G13C U30C G41U | < 1e-05 s⁻¹ | – | < 1e-05 s⁻¹ | < 1e-05 s⁻¹
10 | A15C C34A | < 1e-05 s⁻¹ | < 1e-05 s⁻¹ | < 1e-05 s⁻¹ | < 1e-05 s⁻¹
11 | C11G A33U C34A G41A U54A | < 1e-05 s⁻¹ | < 1e-05 s⁻¹ | < 1e-05 s⁻¹ | –
12 | C34A C50G | 5.9e-05 ± 1.6e-05 s⁻¹ | 0.000448 ± 0.00021 s⁻¹ | – | –
13 | G9U C11U C34A G43U C61A C67G | < 1e-05 s⁻¹ | – | – | –
14 | G37A G40U U55G | – | 6.13e-05 ± 2.5e-05 s⁻¹ | 6.99e-05 ± 1.6e-05 s⁻¹ | –
15 | A14G C50G G51C C61U U69A | – | 0.000136 ± 6.5e-05 s⁻¹ | – | –
16 | U46G A53G C70A | – | 0.000507 ± 0.0001 s⁻¹ | – | –
17 | C34U U47A A48G U69G | < 1e-05 s⁻¹ | – | – | –
18 | C8A C11A | < 1e-05 s⁻¹ | < 1e-05 s⁻¹ | – | < 1e-05 s⁻¹
19 | C8U G13A G66U | – | < 1e-05 s⁻¹ | < 1e-05 s⁻¹ | –
20 | C58G C67G | 5.68e-05 ± 1.1e-05 s⁻¹ | 0.000101 ± 1.3e-05 s⁻¹ | 5.23e-05 ± 1e-05 s⁻¹ | 1.83e-05 ± 8.7e-06 s⁻¹
21 | G35C G63C | < 1e-05 s⁻¹ | < 1e-05 s⁻¹ | < 1e-05 s⁻¹ | –
22 | U47C G59A | < 1e-05 s⁻¹ | – | – | –
23 | G26U A42G U55C | – | 0.0103 ± 0.0029 s⁻¹ | – | –
24 | U65C G66C | < 1e-05 s⁻¹ | < 1e-05 s⁻¹ | – | < 1e-05 s⁻¹
25 | A6C G13C G51U | – | < 1e-05 s⁻¹ | – | –
26 | C11G A14U G35U C70G | 0.000125 ± 4.5e-05 s⁻¹ | 0.000575 ± 0.0002 s⁻¹ | 0.00022 ± 8.2e-05 s⁻¹ | 0.000257 ± 5.4e-05 s⁻¹

Row | Variant | self-cleavage kobs at 160 uM GlcN6P [1] | self-cleavage kobs at 640 uM GlcN6P [2] | self-cleavage kobs at 2500 uM GlcN6P [3] | self-cleavage kobs at 10000 uM GlcN6P [4]
27 | G9A G32A G43C U56C C68U | < 1e-05 s⁻¹ | < 1e-05 s⁻¹ | < 1e-05 s⁻¹ | –
28 | A1U U2G A3G A5U A14C U69C | 5.02e-05 ± 1.8e-05 s⁻¹ | 0.000257 ± 6e-05 s⁻¹ | 0.000526 ± 0.00012 s⁻¹ | –
29 | G41U G51C G62A C68U | < 1e-05 s⁻¹ | < 1e-05 s⁻¹ | < 1e-05 s⁻¹ | –
30 | G51U G63C C67G | < 1e-05 s⁻¹ | < 1e-05 s⁻¹ | < 1e-05 s⁻¹ | < 1e-05 s⁻¹
31 | C16U U47A A53G U54A | 0.00109 ± 0.00027 s⁻¹ | 0.00231 ± 0.00054 s⁻¹ | 0.00464 ± 0.00094 s⁻¹ | –
32 | A14C A15U C70A | 0.000105 ± 3.4e-05 s⁻¹ | 0.000263 ± 5.6e-05 s⁻¹ | 0.000232 ± 8.4e-05 s⁻¹ | –
33 | G26U G29A U54A C70U C71U | 0.000121 ± 3.5e-05 s⁻¹ | – | 5.37e-05 ± 2.3e-05 s⁻¹ | –
34 | G9C A39C | < 1e-05 s⁻¹ | < 1e-05 s⁻¹ | < 1e-05 s⁻¹ | < 1e-05 s⁻¹
35 | G38A A39C G40U G43A U49G U54C | < 1e-05 s⁻¹ | < 1e-05 s⁻¹ | < 1e-05 s⁻¹ | –
36 | A6C A39G U57G | – | < 1e-05 s⁻¹ | < 1e-05 s⁻¹ | –
37 | C11U G13A G44U | – | < 1e-05 s⁻¹ | < 1e-05 s⁻¹ | –
38 | G38A U54G C68A | 5.08e-05 ± 2e-05 s⁻¹ | – | – | –
39 | C10G G38U G41U U49C C50U C70A | < 1e-05 s⁻¹ | – | – | < 1e-05 s⁻¹
40 | G13C U46A G66A C70A | – | < 1e-05 s⁻¹ | – | –
41 | G32U G38U U54G | < 1e-05 s⁻¹ | – | – | –
42 | G9C G32U A39U G41U | < 1e-05 s⁻¹ | < 1e-05 s⁻¹ | < 1e-05 s⁻¹ | –
43 | G32C G35A | < 1e-05 s⁻¹ | < 1e-05 s⁻¹ | < 1e-05 s⁻¹ | < 1e-05 s⁻¹
44 | A33U G51U C58U | < 1e-05 s⁻¹ | – | – | –
45 | C34U U55C C67U | – | < 1e-05 s⁻¹ | – | –
46 | A12U A33C A39G C50G A52G | < 1e-05 s⁻¹ | < 1e-05 s⁻¹ | – | –
47 | A28G U30G C67U C71U | 4.89e-05 ± 2e-05 s⁻¹ | 7.62e-05 ± 1.3e-05 s⁻¹ | 0.000204 ± 5.3e-05 s⁻¹ | –
48 | C10A G32C G38C | < 1e-05 s⁻¹ | – | < 1e-05 s⁻¹ | –
49 | C8U U49C | < 1e-05 s⁻¹ | < 1e-05 s⁻¹ | < 1e-05 s⁻¹ | < 1e-05 s⁻¹
50 | A6G C10G U46G | < 1e-05 s⁻¹ | < 1e-05 s⁻¹ | < 1e-05 s⁻¹ | –
51 | U49A A52U U65A U69G | 7.53e-05 ± 2.4e-05 s⁻¹ | 0.00031 ± 0.00012 s⁻¹ | – | –
